The values that follow come from patent publication US20240218057A1 (ROCKEFELLER UNIVERSITY, published 2024).

The test addresses T1, SARS-COV-2 RBD (SARS-COV-2, UniProt P0DTC2 319-539).
T1 construct: also called WT RBD
Description: ELISA, RBD coated. A general note: ELISA stands for enzyme-linked immunosorbent assay.

B1: C1000 (antibody, V domains shown)
VH: QVQLQESGPGLVKPSQTLSLSCTVSGGSISSDDYYWSWIRQPPGKGLEWIGYIYYSGSTYYNSSLKSRVSISVDTSKNQFSLKLSSVTAADTAVYYCARWKRWLQFLYFDYWGQGTLVTVSS
VL: QSALTQPRSVSGSPGQSVTISCTGTSSDVGGYSFVSWYQQHPGKAPKVLIYDVDKRPSGVPDRLSGSKSGNTASLTISGLQAEDEADYYCCSYAGSYTLIFGGGTKLTVL
notes: IgG; V domains only
Regarding B1, the EC50 was 3.2 ng/mL.

B2: C1014 (antibody, V domains shown)
VH: QVQLQESGPGLVRPSQTLSLTCTVSGGSIGSGAYWSWIRQHPAKGLEWIGYVYYSGSTFYNPSLETRVSISVDISKDQFSLELTSVTVADTAVYYCAREKIEVVSIEMRPHYYGIDVWGQGTTVTVSS
VL: EIVMTQSPATLSVSPGERATLSCRASQSISSNLAWYQQKPGQPPRLLIYGASTRATGIPARFSGSGSGTEFTLTISSLQSEDIAVYYCQHYNNWPPWTFGQGTKVDIK
notes: IgG; V domains only
Take B2: it took 2.95 ng/mL to reach a half-maximal effect (EC50). This EC50 and that of the molecule before are within 1.5-fold of each other.

B3: C1021 (antibody, V domains shown)
VH: QVQLVQSGAELKKPGASVKVSCKASGYTFSTYYIHWVRQAPGQGLEWMGIINPEAGSTSYAQKFQGRVTMTTDTSTSTVYMELISLRSQDTAIYYCARDAVGVPAINSLEYWGQGTLVTVSS
VL: EIVLTQSPATLSLSPGERATLSCRASQSISSYLAWYQQKPGQAPRLLIYDASNRATDISARFSGSGSGTDFTLTISSLEPEDFAVYYCQHRSNWPPSFTFGGGTKVEIK
notes: IgG; V domains only
In the case of B3, the concentration for a half-maximal effect (EC50) was 2.53 ng/mL.

B4: C1020 (antibody, V domains shown)
VH: QVQLVQSGAEVKKPGASVKISCKASGYSFSNYYIHWVRQAPGQGLEWMGIINPSGNSISYAQKFQGRVTMTGDTSTSTVYMELSSLRSEDTAVYYCARSVFPVPAAGGCDYWGQGTLVTVSS
VL: DIQMTQSPSSLSASVGDRVTITCRASQSITTSLNWYQQKPGKAPKLLIYSASTLESGVPSRFSGSGSGTDFTLTISSLQPEDFATYYCQQTYRAPPYTFGQGTKLEIK
notes: IgG; V domains only
B4 returned an EC50 of 2.06 ng/mL. This EC50 and that of the molecule before are within 1.5-fold of each other.

B5: C1008 (antibody, V domains shown)
VH: EVQLVESGGGLIQPGGSLRLSCAASGFTVSSNYMSWVRQAPGKGLEWVSVIYSGGSTYYADSVKGRFTISRDNSKNTLYLQMNSLRAEDTAVYYCARVVGYDFWSGYDGGYFDYWGQGTLVTVSS
VL: QSALTQPASVSGSPGQSITISCTGTSSDVGSYNLVSWYQQHPGKAPKLMIYEVSKRPSGVSNRFSGSKSGNTASLTISGLQAEDEADYYCCSYAGSSTWVFGGGTKLTVL
notes: IgG; V domains only
Molecule B5 came in with an EC50 of 17.2 ng/mL.

B6: C1009 (antibody, V domains shown)
VH: EVQLVESGGGLLQPGGSLRLSCAASGFSVSSNYMTWVRQAPGKGLEWVAAIYSGDSTYYVDSVKGRFIISRDNSKNTVYLHLSSLRAEDTAVYYCARLVGYDFRSGSDGGYFDYWGHGTLVTVSS
VL: QSALTQPASVSGSPGQSITISCTGTSSDIGNYNLVSWYQQHPGKAPKLMIYDVSKRPSGVSNRFSGSKSGNTASLTISGLQAEDETDYYCCSYAGSSTWVFGGGTKLTVL
notes: IgG; V domains only
For B6, a half-maximal response (EC50) required 1.34 ng/mL.

B7: C1019 (antibody, V domains shown)
VH: QVQLVESGGGVVQPGTPLRLSCAASGFTFSSYAMHWVRQAPGKGLEWVAMISYDGGNKYYADSVKGRFTISRDNSKNTLFLQMNSLRGEDTAVYYCARSFSIRIGHKDNWGQGTLVTVSS
VL: NFMLTQPHSVSESPGKTVTISCTGSSGSIANNYVQWYQQRPGSAPTPVIYEDDQRPSGVPDRFSGSIDSSSNSASLSISGLKTEDEADYYCQSYDSTNFWVFGGGTKLTVL
notes: IgG; V domains only
In turn, B7 gave an EC50 of 2.8 ng/mL.

B8: C1002 (antibody, V domains shown)
VH: EVQLVESGGGLVQPGGSLRLSCAASEFIVSSNYMTWVRQAPGKGLEWVSIMYPGGSTFYADSVKGRFTISRDNSKNTLYLQINRLRAEDTAVYYCARDIAGRLDYWGQGTLVTVSS
VL: DIQMTQSPSSLSASVGDRVTITCQASQDINNYLNWYQQKPGKAPKLLIYDASNLETGVPSRFSGSGSGTDFSFTISSLQPEDIATYYCQQYDNLSRLTFGGGTKVEIK
notes: IgG; V domains only
Take B8: the response was half-maximal at 0.83 ng/mL (EC50). Compared with the last molecule, the EC50 is about 3.4-fold lower.

B9: C1010 (antibody, V domains shown)
VH: QVQLVESGGGVVQPGRSLRLSCAASGFTFSSYAMHWVRQAPGKGLEWVAVISYDGSNKYYADSVKGRFTISRDNSKNTLYLQMNSLRAEDTAVYYCAKKGQPYCGGDCYFYYFDYWGQGTLVTVSS
VL: DIQMTQSPSSLSASLGDRVTITCQASQDISNYLNWYQQKPGKAPKLLIYDASNLETGVPSRFSGSGSGTDFTFTISSLQPEDIATYYCQQYDNLPPITFGQGTRLEIK
notes: IgG; V domains only
The molecule B9 showed an EC50 of 2.45 ng/mL. Against the preceding molecule, the EC50 is about 3-fold higher.

B10: C1011 (antibody, V domains shown)
VH: QVQLVESGGGVVQPGRSLRLSCAVSGFTFSHYAMHWVRQAPGKGLEWVAVISYDGADKYYADSVRGRFTIARDNSKNTLFLQMSSLRPEDTAVYYCAKKGQPYCGGDCHFYYLDYWGQGTLVTVSS
VL: DIQMTQSPSSLSASVGDRVTITCQASQDISNHLNWYQQKPGKAPKLLIYDASNLETGVPSRFSGSGSGTDFTFTISSLQAEDIATYYCQQYDNLPPITFGQGTRLEIK
notes: IgG; V domains only
As for B10, the EC50 turned out to be 1.49 ng/mL.

B11: C1006 (antibody, V domains shown)
VH: QVQLVQSGAEVRKPGSSVKVSCKASGGPFDQYTFSWVRQAPGQGLEWMARITPVVDLTNYAQKFQGRITIITDKSTSTAYMELSSLRSEDTAIYYCATPLNDYYASGNLGLWGQGTLVTVSS
VL: DIQMTQSPSSLSASIGDRVTITCRASQGISYYLAWFQQKPGEAPRSLIYDASSLQSGVPSKFSGSGSGTDFTLTISSLQPEDSATYYCQQYNSYPLTFGGGTKVEIK
notes: IgG; V domains only
On to B11, for which a half-maximal response (EC50) required 2.04 ng/mL.

B12: C1007 (antibody, V domains shown)
VH: QVQLVQSGSEMKKPGSSVKVSCKAAGGTLNTHTFSWVRQAPGQGLEWMGRITPTVDLTNYAQKFQGRITITADTSTNTAYLELRRLRSEDTAIYYCATPLNDYYASGNLGLWGQGTLVTVSS
VL: DIQMTQSPSSLSASIGDTVTITCRASQGISYYLAWFQRKPGKAPKSLIYDASSLQSGVPSKFSGSGSGTDFTLTISSLQPEDSATYYCQQYSTYPLTFGGGTKVEIK
notes: IgG; V domains only
In the case of B12, the EC50 turned out to be 3.22 ng/mL.

B13: C1003 (antibody, V domains shown)
VH: QVQLVESGGGVVQPGRSLRLSCAASGFAFSSYGMNWVRQAPGKGLEWVTTVSSDGNVNYYIDSVKGRFTISRDNSKNTLYLQMNSLRGDDTAVYYCAKGPRFGWSYRGGSGFDIWGQGTMVTVSS
VL: DIQMTQSPSSLSASVGDRVTITCQASQDISNYLNWYQQKPGKAPKLLIYDASNLETGVPSRFSGSGSGTDFTFTITSLQPEDIATYYCQQYDNLPITFGQGTRLEIK
notes: IgG; V domains only
Turning to B13, the EC50 was 1.82 ng/mL.

B14: C1012 (antibody, V domains shown)
VH: QVQLVQSGAEVKKPGSSVKVSCKASGGTVNNYAINWVRQAPGQGLEWMGGIVPIFGTPNYAQKFQGRVTITADESTSTAYMELSSLRSEDTAVYYCAKVSLTLPIAAAPRFWFDSWGQGTLVTVSS
VL: EIVMTQSPATLSVSPGERATLSCRASQSVSSHLAWYQQKPGQAPRLLIYGASTRATGIPARFSGSGSGTEFTLTISSLQSEDFAVYYCQQYHNWPPALTFGGGTKVEIK
notes: IgG; V domains only
Regarding B14, a half-maximal effect (EC50) was put at 3.29 ng/mL.

B15: C1013 (antibody, V domains shown)
VH: QVQLVQSGVEVKKPGSSVKVSCKASGGTFTDYAFSWVRQAPGQGLEWMGGIVPIFATPDYAEKFRGRVTITADESTSTAYMELSTLKSEDTAVYYCARASLTLPIRAAPRFWFDAWGQGTLVTVSS
VL: EIVMTQSPATLSVSPGERATLSCRASQGVSTHLAWYQQKPGQAPRLLIYGASTRATGIPARFSGSGSGTEFTLTISSLQSEDFAVYYCQQYHKWPPALTFGGGTKVEIK
notes: IgG; V domains only
As to B15, the EC50 was found to be 8.92 ng/mL. Against the preceding molecule, the EC50 is about 2.7-fold higher.

B16: C1016 (antibody, V domains shown)
VH: QVQLQESGPGLVKPSGTLSLTCAVSGGPISSNHWWSWVRQPPGKGLEWIGEVYRNGNTNYHPSLKSRVTMSIDNSKNQFSLSLTSVTAADTAVYYCARGGDLAMGPEYLDFWGQGTLVTVSS
VL: QSALTQPASVSGSPGQSITISCTGTSSDVGANNYVSWYQQHPGKAPKLMIYDVINRPSGVSDRFSGSKSGNTASLTISGLQAEDEADYYCSSFSTSSTLLFGGGTKLTVL
notes: IgG; V domains only
Regarding B16, a half-maximal effect (EC50) was put at 2.16 ng/mL. Against the preceding molecule, the EC50 is about 4.1-fold lower.

B17: C1018 (antibody, V domains shown)
VH: QVQLVESGGGVVQPGRSLRLLCAASGFTFNTHGMHWVRQAPGKGLEWVAVIWFDGSNKYYADSVKGRFTISRDNSTNTLYLQMNSLRAEDTAVYYCARVYGGLPYYYAIDVWGQGTTVTVSS
VL: QSVLTQPPSVSGAPGQRVTISCAGSSSNIGAGYGVHWSQQLPGRPPKLLIYGDSNRPSGVPDRFSGSNSGTSASLAITGLQAEDEAVYYCQSYDRSLRAWVFGGGTKLSVL
notes: IgG; V domains only
With B17, the response was half-maximal at 3.09 ng/mL (EC50). This EC50 and that of the molecule before are within 1.5-fold of each other.

B18: C1001 (antibody, V domains shown)
VH: QVQLQESGPGLVKPSQTLSLTCTVSGGSISSGDYYWTWIRQPPGKGLEWIGYIFYSGITYYSPSLKSRLTMSIDTSKSQFSLNLSSVTAADTAVYYCARWKRLLQSLHFDYWGQGILVTVSS
VL: QSALTQPRSVSGSPGQSVTISCTGTSSDVGSYDYVSWYQQHPGKAPKVMIYGVDERPSGVPHRFSGSKSGNTASLTISGLQADDEADYFCCFYAGSYTLLFGGGTKVTVL
notes: IgG; V domains only
B18 returned an EC50 of 3.23 ng/mL.

B19: C998 (antibody, V domains shown)
VH: QVQLVQSGAEVKKPGASVKVSCKTSGYTFISYYIHWVRQAPGQGLEWMGIINPDGDNTNYAQKFQGRVTMTRDTSTSTVYMELSSLRFEDTAVYYCARGGAIPALRTAFDIWGQGTMVTVSS
VL: DIQMTQSPSTLSASVGDRVTITCRASQSISNWLAWYQQKPGKAPKLLIYKASSLESGVPSRFSGSGSGTEFTLTISSLQPDDFATYYCQEYNSYYFGQGTKLEIK
notes: IgG; V domains only
In the case of B19, a half-maximal effect (EC50) was put at 2.51 ng/mL.

B20: C999 (antibody, V domains shown)
VH: QVQLVQSGAEVRRPGASVKVSCKASGYTLTHYYIHWVRQAPGQGLEWVGIINPDGDNTNYAQKFQGRVTMTRDTSTSTVYMELSSLRSEDTAIFYCARGGAIPALRSAFDIWGQGTMVTVSS
VL: DIQMTQSPSTLSASVGDRVTITCRASQSINNWLAWYQQKPGKAPKLLIYKASTLESGVPSRFSGSGSGTEFTLTISSLQPDDFATYYCQQYNSYFFGQGTKLEIK
notes: IgG; V domains only
Turning to B20, the EC50 was determined as 2.68 ng/mL.

B21: C997 (antibody, V domains shown)
VH: EVQLLESGGGLVQPGGSLRLSCAASGFTFSKDAMSWVRQAPGKGLEWVSTVTGSGTNTYYADSVKGRFTISRDNSNNTLYLQMNSLRAEDTAVYYCANHPLGAAEGYYYYYMDVWGKGTTVTVSS
VL: EIVLTQSPGTLSLSPGERGTLSCRASQRVPSSQLAWYQQKSGQAPRLLIYGASSRASGIPDRFSGSGSGTDFTLNISRLEPEDFAVYYCQQYGSLRALTFGGGTKVEIK
notes: IgG; V domains only
In turn, B21 came in with an EC50 of 3.49 ng/mL.

For orientation: EC50 means the concentration needed to bring the measured effect to its halfway point. The low end stands for a more potent agent, the high end for a less potent agent.
